Usually Kd stands for the equilibrium constant for the complex coming apart.

The target in the experiment is recombinant HIV-1 gp120 ZM109 (HIV-1). Nature of the experiment: BLI. For orientation: Biolayer interferometry detects binding as a change in optical thickness at a sensor tip.

In the case of “Streptococcal Siglec-like lectin SLBR-N, GST-tagged (domain or fragment)”, the Kd was determined as 40.3 nM.

Consider “recombinant FimH protein, lectin domain only (from UniProt P08191 22-179) (domain or fragment)”, for which the Kd is 360 nM.

For the origin of these results see publication PMC11301080.
